Tests used:
[1] = target: Sticks and Stones (Sns), ectopically expressed in Tub>Sns embryos (Drosophila); experiment: immunostaining of cells or tissue; live-dissected stage 16 embryos (WT or Tub-GAL4 overexpression) incubated 2 hr at room temperature with AP or AP5 fusion protein supernatants (1x or concentrated), fixed in 4% paraformaldehyde, detected with anti-AP antibody; staining intensity compared with WT embryos
[2] = target: Lar-Fc fusion protein (Drosophila) (UniProt P16621); experiment: ELISA; ECIA: Fc fusion bait (1x supernatant) captured by anti-human IgG (Fc-specific) on plate; AP5 fusion prey (1x supernatant) pre-clustered with anti-AP:biotin, overnight at room temperature; streptavidin:HRP, TMB, absorbance at 450 nm
[3] = target: Lar, ectopically expressed in Tub>Lar embryos (Drosophila) (UniProt P16621); experiment: immunostaining of cells or tissue; live-dissected stage 16 embryos (WT or Tub-GAL4 overexpression) incubated 2 hr at room temperature with AP or AP5 fusion protein supernatants (1x or concentrated), fixed in 4% paraformaldehyde, detected with anti-AP antibody; staining intensity compared with WT embryos
[4] = target: Nephrin or Sns (expressed in Tub>NPHS1 or Tub>Sns embryos); experiment: as above
[5] = target: Sns-AP5 fusion protein (Drosophila); experiment: ELISA; ECIA with mi3 particles: AP5 bait (10 ng/ul) on streptavidin-coated plate; mi3 particles or Fc fusion proteins as prey at 10 ng/ul or 1x, overnight at room temperature; detected with anti-LAR or anti-human IgG (Fc) and anti-mouse:AP, BluePhos, absorbance at 650 nm; mi3 preys were purified, purification of bait not told
[6] = target: T1, human Nephrin, ectopically expressed in Tub>NPHS1 embryos (human, UniProt O60500 23-1241); experiment: immunostaining of cells or tissue; live-dissected stage 16 embryos (WT or Tub-GAL4 overexpression) incubated 2 hr at room temperature with AP or AP5 fusion protein supernatants (1x or concentrated), fixed in 4% paraformaldehyde, detected with anti-AP antibody; staining intensity compared with WT embryos; conditions: partners not purified
T1 construct: source: Drosophila embryos, UAS-linked full-length human Nephrin cDNA driven by Tub-GAL4, live-dissected stage 16
T1 sequence (looked up): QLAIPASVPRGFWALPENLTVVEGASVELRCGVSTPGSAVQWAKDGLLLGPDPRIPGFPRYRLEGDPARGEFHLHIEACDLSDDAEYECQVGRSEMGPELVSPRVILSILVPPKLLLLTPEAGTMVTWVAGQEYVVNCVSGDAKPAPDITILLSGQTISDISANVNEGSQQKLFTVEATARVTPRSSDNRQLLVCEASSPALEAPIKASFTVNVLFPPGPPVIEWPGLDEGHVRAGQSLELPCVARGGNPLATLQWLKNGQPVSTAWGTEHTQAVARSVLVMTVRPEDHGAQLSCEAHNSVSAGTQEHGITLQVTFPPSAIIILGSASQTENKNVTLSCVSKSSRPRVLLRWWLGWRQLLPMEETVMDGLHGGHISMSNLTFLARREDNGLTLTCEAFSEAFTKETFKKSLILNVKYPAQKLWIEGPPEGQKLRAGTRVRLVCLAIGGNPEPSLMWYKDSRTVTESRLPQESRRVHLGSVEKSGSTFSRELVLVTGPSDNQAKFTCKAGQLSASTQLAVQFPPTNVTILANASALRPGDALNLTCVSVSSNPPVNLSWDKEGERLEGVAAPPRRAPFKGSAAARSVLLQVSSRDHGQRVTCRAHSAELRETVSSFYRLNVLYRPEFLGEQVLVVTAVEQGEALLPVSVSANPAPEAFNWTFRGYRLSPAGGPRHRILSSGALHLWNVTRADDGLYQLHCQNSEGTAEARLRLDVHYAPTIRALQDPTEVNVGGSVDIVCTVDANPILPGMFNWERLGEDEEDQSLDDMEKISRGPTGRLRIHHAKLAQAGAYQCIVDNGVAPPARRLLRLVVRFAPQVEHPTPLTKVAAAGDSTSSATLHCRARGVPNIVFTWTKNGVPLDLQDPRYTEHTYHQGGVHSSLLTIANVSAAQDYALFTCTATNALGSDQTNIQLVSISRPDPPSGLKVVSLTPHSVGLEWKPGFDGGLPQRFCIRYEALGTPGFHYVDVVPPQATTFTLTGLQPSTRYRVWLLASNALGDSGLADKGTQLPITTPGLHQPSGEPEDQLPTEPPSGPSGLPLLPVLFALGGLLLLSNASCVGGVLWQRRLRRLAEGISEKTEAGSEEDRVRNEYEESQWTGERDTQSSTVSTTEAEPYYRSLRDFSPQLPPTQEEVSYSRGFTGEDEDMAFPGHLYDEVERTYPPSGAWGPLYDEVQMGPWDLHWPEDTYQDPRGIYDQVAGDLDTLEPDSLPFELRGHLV

“Lar^HS2-alkaline phosphatase fusion protein (from UniProt P16621 33-1377) (domain or fragment)” gave a fold increase in staining vs. WT embryos [1] greater than 10 fold.

Molecule “Sns-AP5 fusion protein (domain or fragment)” has a fold higher binding signal [2] of 3 fold and a fold increase in staining vs. WT embryos [3] of 3 fold.

In the case of “PTPRF-AP5 fusion protein (from UniProt P10586 30-1263) (domain or fragment)”, the fold increase in staining vs. WT embryos [4] is reported as 18 to 20 fold.

B1: 60-mer Lar particles on the mi3 nanoparticle scaffold (Fc fusion)
chain: AHPPEIIRKPQNQGVRVGGVASFYCAARGDPPPSIVWRKNGKKVSGTQSRYTVLEQPGGISILRIEPVRAGRDDAPYECVAENGVGDAVSADATLTIYEGDKTPAGFPVITQGPGTRVIEVGHTVLMTCKAIGNPTPNIYWIKNQTKVDMSNPRYSLKDGFLQIENSREEDQGKYECVAENSMGTEHSKATNLYVKVRRVPPTFSRPPETISEVMLGSNLNLSCIAVGSPMPHVKWMKGSEDLTPENEMPIGRNVLQLINIQESANYTCIAASTLGQIDSVSVVKVQSLPTAPTDVQISEVTATSVRLEWSYKGPEDLQYYVIQYKPKNANQAFSEISGIITMYYVVRALSPYTEYEFYVIAVNNIGRGPPSAPATCTTGETKMESAPRNVQVRTLSSSTMVITWEPPETPNGQVTGYKVYYTTNSNQPEASWNSQMVDNSELTTVSELTPHAIYTVRVQAYTSMGAGPMSTPVQVKAQQGVPSQPSNFRATDIGETAVTLQWTKPTHSSENIVHYELYWNDTYANQAHHKRISNSEAYTLDGLYPDTLYYIWLAARSQRGEGATTPPIPVRTKQYVPGAPPRNITAIATSSTTISLSWLPPPVERSNGRIIYYKVFFVEVGREDDEATTMTLNMTSIVLDELKRWTEYKIWVLAGTSVGDGPRSHPIILRTQEDVPGDPQDVKATPLNSTSIHVSWKPPLEKDRNGIIRGYHIHAQELRDEGKGFLNEPFKFDVVDTLEFNVTGLQPDTKYSIQVAALTRKGDGDRSAAIVVKTPGGVPVRPTVSLKIMEREPIVSIELEWERPAQTYGELRGYRLRWGVKDQALKEEMLSGPQMTKKRFDNLERGVEYEFRVAGSNHIGIGQETVKIFQTPEGTPGGPPSNITIRFQTPDVLCVTWDPPTREHRNGIITRYDVQFHKKIDHGLGSERNMTLRKAVFTNLEENTEYIFRVRAYTKQGAGPFSDKLIVETERDMGRAPMSLQAEATSEQTAEIWWEPVTSRGKLLGYKIFYTMTAVEDLDDWQTKTVGLTESADLVNLEKFAQYAVAIAARFKNGLGRLSEKVTVRIKPEDVPLNLRAHDVSTHSMTLSWSPPIRLTPVNYKISFDAMKVFVDSQGFSQTQIVPKREIILKHYVKTHTINELSPFTTYNVNVSAIPSDYSYRPPTKITVTTQMAAPQPMVKPDFYGVVNGEEILVILPQASEEYGPISHYYLVVVPEDKSNLHKIPDQFLTDDLLPGRNKPERPNAPYIAAKFPQRSIPFTFHLGSGDDYHNFTNRKLEREKRYRIFVRAVVDTPQKHLYTSSPFSEFLSLDMREAPPGERPHRPDPNWPAEPEVSVNRNKDEPE
B1 gave a fold increase in binding signal [5] of 7 fold and a fold weaker binding signal than Kirre on Sns-AP5 [5] of 2 fold.

B2: PTPRD-AP5 fusion protein (domain or fragment, human, UniProt P23468 21-1265, looked up)
chain: ETPPRFTRTPVDQTGVSGGVASFICQATGDPRPKIVWNKKGKKVSNQRFEVIEFDDGSGSVLRIQPLRTPRDEAIYECVASNNVGEISVSTRLTVLREDQIPRGFPTIDMGPQLKVVERTRTATMLCAASGNPDPEITWFKDFLPVDTSNNNGRIKQLRSESIGGTPIRGALQIEQSEESDQGKYECVATNSAGTRYSAPANLYVRELREVRRVPPRFSIPPTNHEIMPGGSVNITCVAVGSPMPYVKWMLGAEDLTPEDDMPIGRNVLELNDVRQSANYTCVAMSTLGVIEAIAQITVKALPKPPGTPVVTESTATSITLTWDSGNPEPVSYYIIQHKPKNSEELYKEIDGVATTRYSVAGLSPYSDYEFRVVAVNNIGRGPPSEPVLTQTSEQAPSSAPRDVQARMLSSTTILVQWKEPEEPNGQIQGYRVYYTMDPTQHVNNWMKHNVADSQITTIGNLVPQKTYSVKVLAFTSIGDGPLSSDIQVITQTGVPGQPLNFKAEPESETSILLSWTPPRSDTIANYELVYKDGEHGEEQRITIEPGTSYRLQGLKPNSLYYFRLAARSPQGLGASTAEISARTMQSKPSAPPQDISCTSPSSTSILVSWQPPPVEKQNGIITEYSIKYTAVDGEDDKPHEILGIPSDTTKYLLEQLEKWTEYRITVTAHTDVGPGPESLSVLIRTNEDVPSGPPRKVEVEAVNSTSVKVSWRSPVPNKQHGQIRGYQVHYVRMENGEPKGQPMLKDVMLADAQWEFDDTTEHDMIISGLQPETSYSLTVTAYTTKGDGARSKPKLVSTTGAVPGKPRLVINHTQMNTALIQWHPPVDTFGPLQGYRLKFGRKDMEPLTTLEFSEKEDHFTATDIHKGASYVFRLSARNKVGFGEEMVKEISIPEEVPTGFPQNLHSEGTTSTSVQLSWQPPVLAERNGIITKYTLLYRDINIPLLPMEQLIVPADTTMTLTGLKPDTTYDVKVRAHTSKGPGPYSPSVQFRTLPVDQVFAKNFHVKAVMKTSVLLSWEIPENYNSAMPFKILYDDGKMVEEVDGRATQKLIVNLKPEKSYSFVLTNRGNSAGGLQHRVTAKTAPDVLRTKPAFIGKTNLDGMITVQLPEVPANENIKGYYIIIVPLKKSRGKFIKPWESPDEMELDELLKEISRKRRSIRYGREVELKPYIAAHFDVLPTEFTLGDDKHYGGFTNKQLQSGQEYVFFVLAVMEHAESKMYATSPYSDPVVSMDLDPQPITDEEE
notes: human PTPRD extracellular domain, amplified from a full-length cDNA; also called PTPδ; source: Drosophila S2 cells, transfected, supernatant
With B2 the “fold increase in staining vs. WT embryos” value [6] was 3 fold.

Reference: paper PMC9000958, “Sticks and Stones, a conserved cell surface ligand for the Type IIa RPTP Lar, regulates neural circuit wiring in Drosophila” (eLife, 2022)
